Assay results from paper PMC5430726.

What was measured:
[1] = molecular target: Grb2 SH3C-SLP65 peptide binary complex (formed before Vav SH3N was added) (mouse) (UniProt Q60631); experiment: ITC; Vav SH3N titrated into the preformed Grb2 SH3C-SLP65 peptide binary complex (gives Complex 2, trimeric); 20 mM sodium phosphate, 100 mM NaCl, pH 6.0, 25 °C; Kd called approximate
[2] = molecular target: Grb2 C-terminal SH3 domain (SH3C), residues 155-217 (mouse) (UniProt Q60631); experiment: ITC; free Grb2 SH3C in the cell (20 uM for the peptide, 40 uM for Vav) titrated with 280 uM SLP65 peptide or 600 uM Vav SH3N; 20 mM sodium phosphate, 100 mM NaCl, pH 6.0, 25 °C; one-site binding model
Chain of Grb2 C-terminal SH3 domain (SH3C), residues 155-217 (mouse) (Q60631 155-217): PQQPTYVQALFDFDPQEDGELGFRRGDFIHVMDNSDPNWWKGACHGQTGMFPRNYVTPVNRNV

Chain of Grb2 SH3C-SLP65 peptide binary complex (formed before Vav SH3N was added) (mouse) (Q60631 155-217, one chain of several): as the sequence (Q60631 155-217) above

- Kd [1]: 11.5 µM
- dH [1]: -0.54 kcal/mol
- stoichiometry N [1]: 1.1
- Kd [2]: 4.5 µM
- dH [2]: -3.15 kcal/mol
- stoichiometry N [2]: 0.91
Substance: Vav N-terminal SH3 domain (SH3N), residues 583-660 (from UniProt Q8VDU4 583-660) (domain or fragment)
